Patent US20230137032A1 (GlaxoSmithKline, published 2023)

Experiments:
[1] = target: T1, recombinant human BCMA, commercial (US Biological, B0410) (human, UniProt Q02223 5-54, limits assumed); assay: Biacore T100, antibody captured on Protein A, 37C, experiment 2
T1 construct: also called commercial human BCMA; Human commercial BCMA
T1 chain (looked up): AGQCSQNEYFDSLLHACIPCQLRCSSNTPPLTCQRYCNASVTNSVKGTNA
Experimental: (§1) Protein A was immobilised on a CMS chip (GE Healthcare, Cat No: BR-1005-30) by primary amine coupling and this surface was then used to capture the antibody molecules. Recombinant human BCMA (US Biological, B0410) was used as analyte at 256 nM, 64 nM, 16 nM, 4 nM and 1 nM. Regeneration of the capture surface was carried out using 50 mM NaOH. All binding curves were double referenced with a buffer injection (i.e. 0 nM) the data was fitted to the using the 1:1 model inherent to T100 evaluation software. The run was carried out at 25° C. and 37° C. for experiment 1 and only 37° C. for experiment 2 using HBS-EP as the running buffer.

[2] = target: T2, cyno BCMA expressed on HEK293 cells (cyno, UniProt A0A2K5UD97 1-183); assay: FMAT cell binding on HEK293 cells transfected with cyno BCMA, anti-human IgG FMAT Blue detection
T2 construct: whole, on cells; also called cyno BCMA HEK293
Experimental: Cryopreserved transfected human, cyno BCMA and mock transfected HEK293 cells were recovered from LN2 storage. […] The assay plates were left for a minimum of 90 minutes before the result was read on the ABI8200 (FMAT) plate reader.

[3] = target: T3, recombinant cyno BCMA, in house material (cyno, UniProt A0A2K5UD97 4-52); assay: Biacore T100, antibody captured on Protein A, 37C
T3 construct: also called Cyno in house BCMA

[4] = target: T1, recombinant human BCMA, commercial (US …); assay: Biacore T100, antibody captured on Protein A, 37C
[5] = target: T3, recombinant cyno BCMA, in house material; assay: ProteOn SPR run 1, antibody captured on Protein A, 25C
[6] = target: T1, recombinant human BCMA, commercial (US …); assay: Biacore T100, antibody captured on Protein A, 37C, experiment 1
Experimental: as §1

cyno BCMA-Fc = target: T4, cyno BCMA-Fc (cyno); assay: ELISA on coated cyno BCMA-Fc, anti-human IgG HRP, TMB
T4 construct: also called Cyno BCMA CD33 cyno BCMA ECD (4-52) TEV-Fc; recombinant cyno BCMA
Experimental: Human BCMA-Fc and cyno BCMA-Fc were coated to ELISA plates and the plates were blocked using BSA to reduce non specific binding. CA8 chimeric antibodies were added in a concentration range from 5 ug/ml to 0.1 ug/ml to the human and cyno BCMA coated ELISA plates. […] HRP substrate (TMB) was added to develop the ELISA.

[7] = target: T5, human BCMA expressed on cells (human, UniProt Q02223 1-184); assay: FACS on JJN-3 cells, PE anti-human IgG, MFI
T5 construct: whole, on cells; also called human BCMA HEK293; ARH77-hBCMA 10B5 BCMA expressing transfectant cells
T5 sequence (looked up): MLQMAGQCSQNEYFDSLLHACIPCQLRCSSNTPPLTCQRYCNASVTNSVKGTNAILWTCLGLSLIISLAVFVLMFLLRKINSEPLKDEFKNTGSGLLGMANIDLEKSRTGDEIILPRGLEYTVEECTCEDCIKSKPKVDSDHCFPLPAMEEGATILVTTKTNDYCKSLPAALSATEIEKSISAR
Experimental: Cells were then washed with FACS buffer (PBS+0.5% BSA+0.1% sodium azide) to remove unbound antibody. Cells were incubated with a secondary PE labelled anti-human IgG antibody for 15 minutes at RT and then washed with FACS buffer to remove unbound antibody. Cells were analysed by FACS and mean fluorescence intensity (MFI) values measured to determine binding.

[8] = target: T6, recombinant human BCMA Fc 4-53 (human); assay: ELISA, neutralisation of ligand binding to plate-coated BCMA Fc 4-53; competitor BAFF; competitor BAFF
T6 construct: also called Human BCMA CD33-hBCMA ECD (4-53) TEV-Fc; recombinant BCMA
Experimental: 96 well flat bottomed plates were coated overnight with 1 μg/mL solution of recombinant human BCMA Fc 4-53 in PBS. Following a wash step using 0.05% TWEEN20, plates were blocked with 2% Bovine Serum Albumin solution in PBS for 1 hour at room temperature. […] 40 μL of 2% BSA was added to the relevant control wells. […] Equivalent volume of 2% BSA was added to the relevant control wells. Plates were allowed to incubate for 2 hours at room temperature, after which they were washed as before. […] Following a wash step, 50 µL of a 1:4000 dilution of Streptavidin-HRP (Amersham RPN4401) was added to each well and incubated for 30 minutes at room temperature. The wash process was repeated again followed by the addition of […] of Tetramethylbenzidine substrate solution (T8665, Sigma) into each well. Plates were incubated for 20-25 minutes at room temperature, wrapped in foil. The reaction was stopped with the addition of […] of 1M H₂SO₄. Optical density was determined at 450 nm using Spectromax reader.

B1: CA8 chimera antibody (human chimeric CA8) (antibody, V domains shown)
VH: EVQLQQSGAVLARPGASVKMSCKGSGYTFTNYWMHWVKQRPGQGLEWIGATYRGHSDTYYNQKFKGKAKLTAVTSTSTAYMELSSLTNEDSAVYYCTRGAIYNGYDVLDNWGQGTLVTVSS
VL: DIQLTQTTSSLSASLGDRVTISCSASQDISNYLNWYQQKPDGTVELVIYYTSNLHSGVPSRFSGSGSGTDYSLTIGYLEPEDVATYYCQQYRKLPWTFGGGSKLEIKR
notes: also called Chimera CA8; CA8 chimeric antibody
Question: With B1 as the binder, how does the Kd [1] read?
Answer: Its Kd is 0.055 nM.

Question: And the “EC50 (read off the curve)” value [2]?
Answer: The value was ~0.3 µg/mL.

Question: What about the Kd [3] of the same binder?
Answer: Its Kd is 0.305 nM.

Question: And the Kd [4]?
Answer: The Kd was 0.036 nM.

Question: And the Kd [5]?
Answer: Its Kd is 0.457 nM.

Question: What about the Kd [6] of the same binder?
Answer: Its Kd is 0.051 nM.

Question: Does B1 bind (cyno BCMA-Fc)?
Answer: Result: binds

Question: And the “EC50 (read off the curve)” value [7]?
Answer: Its value is ~0.2 µg/mL.

Question: And the EC50 [8]?
Answer: The EC50 was 0.695 µg/mL.
